Source: patent publication US20240390506A1 (SUZHOU FUSE BIOSCIENCES, published 2024)
Where a chain is given by its changes, count along the chain named.

B1: 872-5 (antibody, V domains shown)
VH: EVQLVESGGGLVQPGGSLRLSCAASGFTFRGYIMSWVRQAPGKGLEWVSWISPEGSRTGYADSVKGRFTISRDNSKNTLYLQMNSLRAEDTAVYYCARLQYGTWFDYWGQGTLVTVSS
VL: DIQMTQSPSSLSASVGDRVTITCRASQSISSYLNWYQQKPGKAPKLLIYAASSLQSGVPSRFSGSGSGTDFTLTISSLQPEDFATYYCQQATLLLPTFGQGTKVEIKR
B2: 872-70 (antibody, V domains shown)
VH: EVQLVESGGGLVQPGGSLRLSCAASGFTFSRYSMSWVRQAPGKGLEWVSYITSTDGTTDYADSVKGRFTISRDNSKNTLYLQMNSLRAEDTAVYYCARSQYGRYYSPDYYFDYWGQGTLVTVSS
VL: B1 VL with A91S, T92R, L93T, L94S, L95P, P96Y
B3: 872-59 (antibody, V domains shown)
VH: EVQLVESGGGLVQPGGSLRLSCAASGFTFTSYAMSWVRQAPGKGLEWVSSIYSWYGTTSYADSVKGRFTISRDNSKNTLYLQMNSLRAEDTAVYYCARTISYSQYAYGYSFDYWGQGTLVTVSS
VL: B1 VL with T92F, L93T, L94S, L95P, P96R

Biological target: T1, human Fibroblast Activation Protein (FAP), soluble recombinant antigen (human, UniProt Q12884 26-760, biotinylated for BLI and panning (sites not given))
T1 construct: also called biotinylated FAP (Sino Biological); soluble FAP antigen
T1 sequence: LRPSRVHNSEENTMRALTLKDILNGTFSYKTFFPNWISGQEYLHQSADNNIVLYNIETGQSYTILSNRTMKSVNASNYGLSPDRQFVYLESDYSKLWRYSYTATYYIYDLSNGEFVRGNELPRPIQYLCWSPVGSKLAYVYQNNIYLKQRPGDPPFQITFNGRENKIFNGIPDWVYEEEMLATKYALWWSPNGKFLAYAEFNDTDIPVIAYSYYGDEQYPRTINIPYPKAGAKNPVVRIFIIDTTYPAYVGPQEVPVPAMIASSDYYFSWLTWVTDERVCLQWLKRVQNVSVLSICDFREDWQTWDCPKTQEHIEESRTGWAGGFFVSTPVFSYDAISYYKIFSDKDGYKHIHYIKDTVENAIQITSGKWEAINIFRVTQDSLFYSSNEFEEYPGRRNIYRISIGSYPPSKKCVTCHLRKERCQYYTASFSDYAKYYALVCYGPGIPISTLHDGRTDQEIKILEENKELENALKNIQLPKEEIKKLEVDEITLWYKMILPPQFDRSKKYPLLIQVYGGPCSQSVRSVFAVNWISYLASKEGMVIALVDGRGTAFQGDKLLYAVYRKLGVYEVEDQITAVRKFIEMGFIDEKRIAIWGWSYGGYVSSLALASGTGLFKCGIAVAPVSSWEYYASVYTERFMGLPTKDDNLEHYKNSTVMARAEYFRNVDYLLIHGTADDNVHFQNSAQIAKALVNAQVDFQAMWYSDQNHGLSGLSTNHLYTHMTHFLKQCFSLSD
Assay: BLI (Gator), biotinylated FAP on streptavidin sensor

Binder	Kd [nM]	koff [s⁻¹]	kon [M⁻¹ s⁻¹]
B1	6.6	0.0028	420000
B2	< 1	–	110000
B3	15.5	0.0056	360000
